Laboratory results as given in the DeepSol protein solubility set.

assay: soluble on expression in E. coli; label from the status in PepcDB or PDB records

| Sequence | soluble on expression in E. coli |
| --- | --- |
| MMKIIAFVGMPASGKSEASRIAAEMGIPVIIMGDVIRKEVLKRGLEPNDSNTGMVATDLRKHEGMGAVARRCISQIRETGSELVVVDGVRGIAEVECFRKEFGKGFILISIYAPIEVRFSRVQKRGRSDDMNSIEGLRHRDERELSWGMGEAIDASNVEIENNFTLETFRKDVRDVLSNYLEADLEK | not soluble |
| MMKKILVACGTGMSTSTMIAQKLQDFLAEQGIAATTAQCCLNEIPLNCNGMDLIVTSMRTHSDYGIPTLNGAALLTGINDDALKQEIKALLTQ | not soluble |
| MMKTVLIYYPFSLAAERNSGSKLRPYEMHQAFLRWGAKEGVDVLLIAGTSAEREKQFQELRSQGKLDDVWFCYMENQTIPLWLTDPGHRSQRPFVDRDVLRYLKARNVPIGVFYRDVYWKFPDLYPLRGWKKAAMQMMYRWEERFYERYCDVIFLPSLEMGTYVAIRRPMVDLPPGGKQKPFQRFGTAKQPLNAIYVGGINNADYGLLLLLEAIRLANRRKPLVSLTVVCRKDEYERQPLAVKEELAALQVRVEHVSGEALDRLYAEMDFAFIPRRRSEYNDFSVPVKLVDYLSSGLPIVATACSAQKRLIEADGYGVICDDNPSSMAEAIAKMADMLEECRLRIAQTFMAKHSWEARVEKVKETLVGGLR | not soluble |
| MMNIFILEDDFIQQTRIESIVVGILKETRIPCNQLEVFSTPQKLFESIQERGDHQLYFLDIEIGEYTRCGLELAAAIRQKDPNAVIVFVTTHSEFAPISFKYKVSALDFIDKAGGQKQFKEQIEECIRYTYDMMSSRESKDMFLFETPQTRLKLPYKDILYFATATTPHKVCLWTQTERLEFYGNLSEIQAVAPKLFLCHRSYLVNLDKVVRIDKSKQLLYFENGDSCMVSRLKMKCLFERWEALR | not soluble |
| MMNISHKDHHNDQEISDANRDWWDSDAQRYHNDHAAYLNGFHWCPEMLPEREAHLLGDISGLNVLEIGCGSAPCSRWLFDNYDAFVTGFDLSMGMLRHSPTDVPLTQADAVNLPYKDSSFDIAFSAFGAFPFIENLGPVLKDIARCLKPHGKLVFSTNHPMRWIFPDDPTEIGLCAELSYFDRSYTERDKNGKITYAEFHRTMGDWIELLNASGFIIDRLIEPEWPTNLTETWGQWSPLRGRIFPGTAIFVTHCR | not soluble |
| MMNTKVALKQLMATHFITVDVPCPECGGAMTAWKEPTPDTPPRCPPVCMECGYRSVKKKEATTAKNLYESSLIKKAKDYFLNGSVLTDRKSLHKKISNYYPSNQESTKAKNISMEFCEKTLLGEIHHLILTGGVGVGKSHLAIGCLNEILVKSNYSKKVLFVSYRELLEQLKFAMNDEEARKAITGVAMSEIKAADVVVLDDIGAELGDFNKRDEKGNLILSRASNFDIDTLTGILESRIDKPTIITSNLKSKEIKYCYGERIVSRMATHSNGFMHRFTNTKDYRLKTALEHHHHHH | soluble |
| MMQVLTRPPSGMPALVLNADFRPLSYYPLSLWPWQEVIKAVFLDRVDVVASYDQVIHSPSCEMRLPSVVALKQYVPQERPPAFTRFNLFLRDSFSCQYCGSPEDLTFDHVIPRSRGGRTTWENIVTACAPCNLSKGGRTPREAGMQPFHTARRPSMYELQERGRRFPPGRLHVSWLDYLYWDIELEALEHHHHHH | not soluble |
| MMRGASKRSISSAAVLLIKKNKLPPRPKFTPEMEAQCTEKFLHGGRGPGGQKINKCNSKVQLRHEPTGIVVECQETRSREQNRKLARLKLARELAASYDTMPSREEALLQWHRQQKRSQRRRSVAKYEQREEAARVEKEEREARDREMVRELFRR | soluble |
| MMRITGKHCLRVAILSIQRSGMIHPRNTNGSKAKNVMVADGCVIEGTVENSILSRGVKIGKNAKVKNCILLQDTVIEDGANLEYVITDKNVRVSRNRSLTGNDSFQVYVAKGQTV | not soluble |
| MMRPTVFSSKAVISSSSLSASLAGAKIIEKGGNIFDAAIAVSSVLSVTQNNLCGLGGDAFALVRYNGRVKGYNGSGKSSRNVNRGLYFELGYSRIPERGIYSAITVPGLVDLWNSLYLEYATMRFSDLISDAIKYAETGFYITRHYEESLIASSPILGQYNWSNQFMPYGKIPAEGDLFIQKDLAGTLREIAEEGPRSFYDGYLSDIIFKAMEKTNLLIDSKDLSDHKTLAANPVKSTYMDYDVFETAPNSQGATVNYWLALLEQKIQNKIPRPVDIVESGLEAYRWRSMFIGDPERMPFNGDLLSKGAGPYYNNPRVPEDKGDTTYFSISDANGNSISMIQSNYMGFGSGIIPEGTGFVLQNRGSYFTLDDKHHNSLEPRKRTFHTLAACIIEKDGELVYSLGTMGGDIQPQVQVQIITGLINQDLMPQEAIERPRWAFPATIYEQPSVLNVEDTSLINENETRLRINPMKYSSSFGTAQVTALLNGRVAGGSDPRGDGFSIPVMAGDPLEHHHHHH | not soluble |
| MMSGAVEPVSVIFPQSTSSGVEVLYQQFSFGRYFNQIAAGVITGLIQAHQHSGHGPLRILEVGGGTGGTTAWLLPELRNVADVRYCFTDISALFSRRAEDKFSEYDFVEYAQFDLQKPASEQGFQAGHYDLIVAANVIHATQHVGQTLHNLRPLLKPGGALLMREITRPMRLFDFVFGPLVLPLHDEQARGGELFLSTAHWQQQCLESGFERLDWLP | not soluble |
| MMSKQPTSKRQWRDGAAPSAKKTAKPFKSKARPKDETGKTASQPYGQKASDGIKPQNVPKQRAAKAKKLVVRNPNQKIMEHARDLKERRSDLSRMEPERLQKVLAASGVGSRREMEEWITNGWITVNGKTAQLGDKVTPDDHVTVKGSIIKLKWADRLPRIILYYKQEGEIVSRDDPQGRVSIFDRLPQAASSRWVAIGRLDINTSGLLILTTSGELVQRFAHPSFEVEREYAVRVLGGLTGEQMRVLTEEGVMLEDGLAKVERIREQGGEGANKWYNVVIKEGRNREVRRIFESQGLTVSRLVRIGFGPIGLPNRLKRGQFYELNPAEVANIIKWADMLLPGERRRKKA | not soluble |
| MMSSGPLDPSDVTLFTSYPSPIVVPLEFIEEQSKSSREELEIDESGLYIMSKALEEFMRTVMRGATQNGSRLLDYDSIAEFFANSEFRALKDFFPERVRFDEIESEILPTRATGPSNSS | not soluble |
| MMSVPQAREARRIDLGEMGWGEVQVDFYNPLVKRREIVMILHHELKPTPMRIMLRQKLAEVLGVDIKRIYIRYIKTGYGAGLSKVRVHVYDSPERALSFEPKYIIERNGGVNPFEEAEG | soluble |
| MMTQVTESAVRSALSRVEDPEIGKPITELGMVKSVSIDGSDVQVEVYLTIAACPMKTTIVTNTEAALKDIDGVGQVHVTTDVMSDEQRRALRVSLRGETSEPVIPFAQPGSTTRVYAVASGKGGVGKSSMTVNLAAALAKRGLSVGILDADIYGHSVPGMLGSDQRPHQVDDMIMPPQAHGVKMISIAHFTEGNAPVVWRGPMLHRAIQQFLTDVFWGDLDILLLDLPPGTGDIAITVAQLIPNAELLIVTTPQAAAAEVAERAGTISVQTNQKVAGVIENMSAMVLPDGTTMDVFGTGGGQKIADRLTAVTGEEVKVIGSVPLDPNLRIGGDVGNPIAISEPHSPTAAAINEIAEHLAHRKVSLVGKTLGLGVKLEHHHHHH | soluble |
| MMVDTGVDHRAVSSHDGPDAGRRVFGAADPRFACVVRAFASMFPGRRFGGGALAVYLDGQPVVDVWKGWADRAGWVPWSADSAPMVFSATKGMTATVIHRLADRGLIDYEAPVAEYWPAFGANGKATLTVRDVMRHQAGLSGLRGATQQDLLDHVVMEERLAAAVPGRLLGKSAYHALTFGWLMSGLARAVTGKDMRLLFREELAEPLDTDGLHLGRPPADAPTRVAEIIMPQDIAANAVLTCAMRRLAHRFSGGFRSMYFPGAIAAVQGEAPLLDAEIPAANGVATARALARMYGAIANGGEIDGIRFLSRELVTGLTRNRRQVLPDRNLLVPLNFHLGYHGMPIGNVMPGFGHVGLGGSIGWTDPETGVAFALVHNRLLSPLEHHHHHH | not soluble |
| MMYQVKGYFSSLKGSYYEIGKQQGEFVKQNPYLIPQFIHEENVISNNHWTESRNILNKHCPGINEEIEGFCEVLKIPSKNMMYYYQTLLKAGCSHCAVLPKKTDLEHTYVLRNYDLSPVIDDMRFCSTHVEGAYAHSGFSTQYFGRTEGINEHGLAVTFSACGQPVGNIAGLRKPMVSGLQCFAVIRLLLEKCKNVQEAKLLIEEIPIASNINLIIADPLNAAYIEIFDGHKSTITIDGEKQAFIVSTNHAVSSSIQKLNNRKLEQSTKRYHLLHEHLNRCEQVSIESLKKLVEEEYPAGLTVHNYEEWFGTLHSVLFDLHDRTMKICFGSPLLNDWYSLKVGGSMPFSEVNVNFKNKTYTDFWKEDKNELIPKRLEHHHHHH | soluble |
